{"source": "paper PMC3772059", "system": "TTF-IΔN348", "experiment": "MST", "conditions": "5 mM MgCl2; Hill coefficient 1; MST: 50 nM DNA, 5 nM-2.4 uM protein, 80 mM Tris-HCl pH 7.6, 80 mM KCl, 0.2 mM EDTA, 5 mM MgCl2, 10% glycerol, 0.05% IGEPAL CA-630, 10 min at 30 C; EMSA and …"}
{"substance": "T2 Sal-box 30-mer oligonucleotide", "values": [{"measurement": "Kd", "value": 500, "unit": "nM"}]}
